Patent publication US20170253873A1

Molecular target: phosphorylated Smad3 (pSmad3) (UniProt Q8BUN5)
Test: cell-based or functional assay

Sequence of phosphorylated Smad3 (pSmad3) (Q8BUN5 2-425 limits assumed): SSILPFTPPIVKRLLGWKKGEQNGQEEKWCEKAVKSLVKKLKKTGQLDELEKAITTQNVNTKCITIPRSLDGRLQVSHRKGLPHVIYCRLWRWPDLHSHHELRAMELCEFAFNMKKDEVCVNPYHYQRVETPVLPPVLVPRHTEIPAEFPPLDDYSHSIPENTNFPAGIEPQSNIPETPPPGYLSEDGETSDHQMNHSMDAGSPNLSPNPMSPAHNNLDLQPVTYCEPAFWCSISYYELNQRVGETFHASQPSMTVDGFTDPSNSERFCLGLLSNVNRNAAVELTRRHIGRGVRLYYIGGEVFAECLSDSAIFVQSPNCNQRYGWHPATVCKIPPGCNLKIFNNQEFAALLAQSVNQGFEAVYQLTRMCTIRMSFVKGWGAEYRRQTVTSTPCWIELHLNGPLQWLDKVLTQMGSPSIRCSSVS

## TAT-SH3 (TAT-SNX9(SH3) fusion polypeptide containing the full length SH3 domain, amino acids 1 to 62) (from UniProt Q9Y5X1 1-62) (designed binder)
  decrease in Smad3-dependent luciferase activity: 70%
